What all share (assay): cell-based or functional assay
The target of experiment [1] is Lrp5 + Fzd7 co-expressed on STF (superTOPFLASH) reporter cells (UniProt Q91VN0).
The target of experiment [2] is Lrp6 + Fzd4 co-expressed on STF (superTOPFLASH) reporter cells (UniProt O88572).
Experiment [3] deals with Lrp5 + Fzd4 co-expressed on STF (superTOPFLASH) reporter cells (UniProt Q91VN0).
In experiment [4] the target is Lrp6 + Fzd7 co-expressed on STF (superTOPFLASH) reporter cells (UniProt O88572).
Sequence of Lrp6 + Fzd7 co-expressed on STF (superTOPFLASH) reporter cells (O88572 20-1613 limits assumed, chain 1 of 2, other chains not shown): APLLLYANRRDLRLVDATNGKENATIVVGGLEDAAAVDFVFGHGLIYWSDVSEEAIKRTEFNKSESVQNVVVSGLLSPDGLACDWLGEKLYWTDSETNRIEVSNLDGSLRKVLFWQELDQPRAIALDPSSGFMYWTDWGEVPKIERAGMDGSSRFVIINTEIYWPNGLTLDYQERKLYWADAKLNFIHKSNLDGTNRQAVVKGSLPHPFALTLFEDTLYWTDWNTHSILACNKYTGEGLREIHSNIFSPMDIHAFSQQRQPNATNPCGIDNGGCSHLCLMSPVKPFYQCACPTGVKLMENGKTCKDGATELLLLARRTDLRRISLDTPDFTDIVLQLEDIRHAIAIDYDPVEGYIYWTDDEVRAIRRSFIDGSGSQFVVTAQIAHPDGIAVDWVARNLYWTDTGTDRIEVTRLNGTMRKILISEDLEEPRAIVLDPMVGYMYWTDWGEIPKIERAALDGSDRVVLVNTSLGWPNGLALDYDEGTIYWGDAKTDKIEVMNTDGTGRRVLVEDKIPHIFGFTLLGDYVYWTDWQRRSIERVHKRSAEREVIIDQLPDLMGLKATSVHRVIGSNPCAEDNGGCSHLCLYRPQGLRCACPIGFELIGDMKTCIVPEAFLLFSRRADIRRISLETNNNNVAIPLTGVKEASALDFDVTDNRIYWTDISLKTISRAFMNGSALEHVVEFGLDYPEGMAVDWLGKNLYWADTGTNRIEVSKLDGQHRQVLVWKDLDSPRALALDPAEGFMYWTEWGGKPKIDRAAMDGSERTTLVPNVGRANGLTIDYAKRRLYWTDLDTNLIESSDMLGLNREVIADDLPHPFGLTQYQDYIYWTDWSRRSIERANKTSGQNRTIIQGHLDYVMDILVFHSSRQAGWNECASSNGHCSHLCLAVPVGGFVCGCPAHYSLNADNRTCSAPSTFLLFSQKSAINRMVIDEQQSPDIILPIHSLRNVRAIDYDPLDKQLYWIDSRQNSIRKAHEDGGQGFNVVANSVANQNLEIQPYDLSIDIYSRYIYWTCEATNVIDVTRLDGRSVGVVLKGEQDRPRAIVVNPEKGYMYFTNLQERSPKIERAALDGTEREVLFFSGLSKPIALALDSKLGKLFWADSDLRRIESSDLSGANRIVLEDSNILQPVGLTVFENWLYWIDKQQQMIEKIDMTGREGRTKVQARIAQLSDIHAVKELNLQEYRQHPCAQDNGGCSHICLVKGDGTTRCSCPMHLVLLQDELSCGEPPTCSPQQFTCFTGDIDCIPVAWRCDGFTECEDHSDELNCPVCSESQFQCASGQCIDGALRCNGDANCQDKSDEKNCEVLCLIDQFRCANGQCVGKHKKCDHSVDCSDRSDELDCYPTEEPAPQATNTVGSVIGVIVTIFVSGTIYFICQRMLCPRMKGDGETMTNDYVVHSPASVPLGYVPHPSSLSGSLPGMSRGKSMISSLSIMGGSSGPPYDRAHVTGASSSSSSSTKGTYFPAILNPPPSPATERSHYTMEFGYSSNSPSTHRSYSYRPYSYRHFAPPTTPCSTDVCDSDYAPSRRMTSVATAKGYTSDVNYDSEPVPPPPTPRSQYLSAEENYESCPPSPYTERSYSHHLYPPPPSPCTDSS

This is an account of results in patent US8703708.

Sequence of Lrp5 + Fzd7 co-expressed on STF (superTOPFLASH) reporter cells (Q91VN0 31-1614 limits assumed, chain 1 of 2, other chains not shown): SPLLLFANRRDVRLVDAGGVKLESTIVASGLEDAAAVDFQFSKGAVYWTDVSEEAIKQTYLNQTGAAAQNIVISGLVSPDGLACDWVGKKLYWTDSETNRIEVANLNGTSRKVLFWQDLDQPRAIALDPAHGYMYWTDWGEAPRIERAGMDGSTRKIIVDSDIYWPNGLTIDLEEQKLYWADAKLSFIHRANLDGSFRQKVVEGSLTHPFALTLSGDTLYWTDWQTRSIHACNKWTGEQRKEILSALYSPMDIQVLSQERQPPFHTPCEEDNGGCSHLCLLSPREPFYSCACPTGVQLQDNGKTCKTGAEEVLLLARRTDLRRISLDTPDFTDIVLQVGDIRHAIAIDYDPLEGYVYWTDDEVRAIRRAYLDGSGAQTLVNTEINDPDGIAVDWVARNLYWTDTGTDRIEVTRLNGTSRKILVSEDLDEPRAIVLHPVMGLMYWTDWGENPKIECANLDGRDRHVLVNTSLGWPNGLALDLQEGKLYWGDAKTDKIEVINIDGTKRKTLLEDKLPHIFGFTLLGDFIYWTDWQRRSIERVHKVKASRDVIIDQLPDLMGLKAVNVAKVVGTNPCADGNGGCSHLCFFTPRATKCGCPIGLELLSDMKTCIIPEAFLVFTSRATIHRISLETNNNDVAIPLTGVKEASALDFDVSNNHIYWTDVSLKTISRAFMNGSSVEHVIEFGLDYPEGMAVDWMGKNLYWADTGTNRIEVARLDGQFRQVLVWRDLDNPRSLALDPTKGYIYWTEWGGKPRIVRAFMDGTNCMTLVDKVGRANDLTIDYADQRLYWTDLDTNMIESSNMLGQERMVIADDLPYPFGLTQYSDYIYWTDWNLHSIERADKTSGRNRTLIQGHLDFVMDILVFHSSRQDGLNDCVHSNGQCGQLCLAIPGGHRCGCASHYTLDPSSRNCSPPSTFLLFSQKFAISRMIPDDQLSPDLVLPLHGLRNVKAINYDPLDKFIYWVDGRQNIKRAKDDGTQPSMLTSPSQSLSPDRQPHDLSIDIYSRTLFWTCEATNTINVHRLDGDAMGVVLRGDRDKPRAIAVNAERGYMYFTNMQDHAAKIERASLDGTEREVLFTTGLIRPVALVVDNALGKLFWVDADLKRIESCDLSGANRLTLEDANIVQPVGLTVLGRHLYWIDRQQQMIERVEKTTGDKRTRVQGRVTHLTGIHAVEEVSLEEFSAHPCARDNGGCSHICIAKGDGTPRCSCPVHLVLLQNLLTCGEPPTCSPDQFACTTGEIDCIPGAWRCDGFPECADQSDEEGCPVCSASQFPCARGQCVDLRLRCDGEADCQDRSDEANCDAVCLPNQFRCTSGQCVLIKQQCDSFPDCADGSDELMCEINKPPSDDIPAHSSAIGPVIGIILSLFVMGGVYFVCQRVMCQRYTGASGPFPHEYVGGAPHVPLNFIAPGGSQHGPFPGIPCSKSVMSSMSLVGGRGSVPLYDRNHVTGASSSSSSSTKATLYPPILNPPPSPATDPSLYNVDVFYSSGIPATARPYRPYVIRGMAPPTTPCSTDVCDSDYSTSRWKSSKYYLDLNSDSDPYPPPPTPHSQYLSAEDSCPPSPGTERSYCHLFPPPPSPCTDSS
Sequence of Lrp5 + Fzd4 co-expressed on STF (superTOPFLASH) reporter cells (Q91VN0 31-1614 limits assumed, chain 1 of 2): as the sequence (Q91VN0 31-1614 limits assumed, chain 1 of 2, other chains not shown) above
Sequence of Lrp5 + Fzd4 co-expressed on STF (superTOPFLASH) reporter cells (Q61088 37-537 limits assumed, chain 2 of 2, further chain): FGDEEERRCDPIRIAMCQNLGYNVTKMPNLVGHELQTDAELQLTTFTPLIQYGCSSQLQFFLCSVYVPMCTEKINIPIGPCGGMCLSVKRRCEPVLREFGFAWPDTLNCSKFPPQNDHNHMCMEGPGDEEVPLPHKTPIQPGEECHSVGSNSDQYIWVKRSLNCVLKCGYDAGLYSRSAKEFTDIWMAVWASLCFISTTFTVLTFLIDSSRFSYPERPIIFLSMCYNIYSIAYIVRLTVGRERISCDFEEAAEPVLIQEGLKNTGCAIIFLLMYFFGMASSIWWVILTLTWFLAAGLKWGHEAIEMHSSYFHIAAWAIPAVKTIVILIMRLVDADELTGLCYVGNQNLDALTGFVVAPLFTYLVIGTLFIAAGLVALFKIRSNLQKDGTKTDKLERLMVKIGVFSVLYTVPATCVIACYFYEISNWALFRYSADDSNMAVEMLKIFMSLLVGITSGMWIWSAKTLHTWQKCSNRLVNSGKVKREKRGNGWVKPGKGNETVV
Sequence of Lrp6 + Fzd4 co-expressed on STF (superTOPFLASH) reporter cells (O88572 20-1613 limits assumed, chain 1 of 2): as the sequence (O88572 20-1613 limits assumed, chain 1 of 2, other chains not shown) above
Sequence of Lrp6 + Fzd4 co-expressed on STF (superTOPFLASH) reporter cells (Q61088 37-537 limits assumed, chain 2 of 2, further chain): as the sequence (Q61088 37-537 limits assumed, chain 2 of 2, further chain) above

Consider “Wnt7b (ORF cloned from C57BL6 kidney cDNA, expressed by 293 cells or bone marrow macrophages) (from UniProt P28047 25-349) (ligand)”, for which the Firefly Luciferase, absolute light units, STF reporter cells co-cultured with 293-Wnt7b (293-control: 16172) (absolute light units) in experiment [1] was determined as 51600. The Firefly Luciferase, absolute light units, STF reporter cells co-cultured with 293-Wnt7b (293-control: 573) (absolute light units) in experiment [2] stood at 10100. Further, the Firefly Luciferase, absolute light units, STF reporter cells co-cultured with 293-Wnt7b (293-control: 6430) (absolute light units) in experiment [3] was found to be 26900. Moreover, the Firefly Luciferase, absolute light units, STF reporter cells co-cultured with 293-Wnt7b (293-control: 464) (absolute light units) in experiment [4] turned out to be 11500.
